# In the nanobody polyreactivity screen of Harvey et al. (2022):
# Assay: yeast display, Sf9 membrane polyspecificity reagent, FACS + sequencing; frameworks hold sequencing errors
# Method in brief: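 A nanobody's polyreactivity label depends on the gate it was sorted from. Yeast display cells were stained with 10% biotinylated, detergent-solubilized Sf9 membrane reagent for 1 hour at 4 °C, enriched on streptavidin microbeads and sorted by FACS. The low and high (top ~1%) gates were set on anti-HA fluorescence for expression and streptavidin fluorescence for reagent binding.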
row,Sequence,polyreactivity (PSR sort gate)
1,QVQLVESGGGLVQAGGSLRLSCAASGSIFNPYDMGWYRQAPGKERELVAAIDWSGGSTYYADSVKGRFTISRDNAKNTVYLQMNSLKPEDTAVYYCNAESYQDTLFGADNDYDYWGQGTQVTVSS,low polyreactivity
2,QVQLVESGGGLVQAGGSLRLSCAASGSIFNQYAMGWHRQAPGKERELVAAISSDGGRTYYADSVKGRFTISRDNAKNTVYLQMNSLNPEDTAVYYCNKDVRPAYRWYDYWGQDTQVTVSS,low polyreactivity
3,QVQLVESGGGLVQAGGSLRLSCAASGSIFNRNAMGWYRQAPGKERELVAAITRRGGSTYYADSVKGRFTISRDNAKNTVYLQMNSLKPEDTAVYYCAAATRKTEYDYWGQGTQVTVSS,low polyreactivity
4,QVQLVESGGGLVQAGGSLRLSCAASGSIFNRYAMGCYRQATGKERELVAAINSRGGSTSYADSVKGRFTISRDIAKNTVYLQMNSLKPEDTAVYYCAADRGVNSYGYWGQGTQETVSS,high polyreactivity
5,QVQLVESGGGLVQAGGSLRLSCAASGSIFNRYAMGWYRQAPGKERELVAAIRSGDNTNYADSVKGRFTISRDNAKNTVYLQMNSLKPEDTAVYYCAKRTYYRSRTVGWGKMDYWGQGTQVTVSS,high polyreactivity
6,QVQLVESGGGLVQAGGSLRLSCAASGSIFNRYAMGWYRQAPGKERELVAAISSTGSTYYADSVKGRFTISRDNAKNTVYLQMNSLKPEDTAVYYCNADATHDWLRVDTYEYWGQGTQVTVSS,low polyreactivity
7,QVQLVESGGGLVQAGGSLRLSCAASGSIFNRYTMGWYRQAPGKERELVAAISKRGGSTYYADSVKGRFTISRDNAKNTVYLQMNSLKPEDTAVYYCAAAAYHSGKGGGYWGQGTQVTVSS,high polyreactivity
8,QVQLVESGGGLVQAGGSLRLSCAASGSIFNSNVMGWYRQAPGKERELVAAISTSGGSTHYADSVKGRFTISRDNAKNTVYLQMNSLKPEDTAVYYCAARVSSYSQLYYYWGQGTQVTVSS,high polyreactivity
9,QVQLVESGGGLVQAGGSLRLSCAASGSIFNSYAMGWYRQAPGKERELVAAISGSGTRTYYADSVKGRFTISRDNAKNTVYLQMNSLKPEDTAVYYCAGYGYWGQGTQVNVSS,high polyreactivity
10,QVQLVESGGGLVQAGGSLRLSCAASGSIFNSYAMGWYRQAPGKERELVAAISKRGGSTYYADSVKGRFTISRDNAKNTVYLQMNSLKPEDTAVYYCAAEYYYAGWSYSYDYWGQGTQVTVSS,high polyreactivity
11,QVQLVESGGGLVQAGGSLRLSCAASGSIFNSYAMGWYRQAPGKERELVAAITRSDGSTYYADSVKGRFTISRDKAKNTVYLQMNSLKPEDTAVYYCAKGVGGYIYSEYDYWGQGTQVTVSS,low polyreactivity
12,QVQLVESGGGLVQAGGSLRLSCAASGSIFNTNAMGWYRQAPGKERELVAAISKNAGRTFYADSVKGRFTISRDNAKNTVYLQMNSLKPEDTAVYYCAARGVGPQPGYQRFNYWGQGTQVTVSS,high polyreactivity
13,QVQLVESGGGLVQAGGSLRLSCAASGSIFNTYVMGWYRQAPGKERELVAAITSSGGRTYYADSVKGRFTISRDNAKNTVYLQMNSLKPEDTAVYYCNTAQRWVGRNDYWGQGTQVTVSS,high polyreactivity
14,QVQLVESGGGLVQAGGSLRLSCAASGSIFNWYAMGWSRQAPGKERELVAAISEDGGSTYYADSVKGRFTISRDNAKNTVYLQMNTLKPEDTAVYYCATPVASVTGYDYWGQGTQVTVSS,low polyreactivity
15,QVQLVESGGGLVQAGGSLRLSCAASGSIFNYNAMGWYRQAPGKERELVAAITWSGGTTYYADSVKGRFTISRDNAKNTVYLQMNSLIPEDTAVYYCAAEWWDGSYPLYEYYYWGQGTQVNVSS,high polyreactivity
16,QVQLVESGGGLVQAGGSLRLSCAASGSIFNYNDMGWYRQAPGKERELVATITNGGGTNYADSVKGRFTISRDNAKNTVFLQMNSLKPEDTAVYYCAAGRSGWGYDSWGQGTQVTVSS,low polyreactivity
17,QVQLVESGGGLVQAGGSLRLSCAASGSIFNYSAMGWYRQARGKERELVAGITTSGGSTYYADSVKGRFTISRDNAKNTVYLQMNSLKPEDTAVYYCAAYDYISSTYFLDDYWGQGTQVTVSS,low polyreactivity
18,QVQLVESGGGLVQAGGSLRLSCAASGSIFNYYAMGWYRQAPGKERELVAAITSGVSTYADSVKGRFTISRDNAKNTVYLQMNSLKPEVTAVYYCADRVTGPRGDYWGQGTQVTVSS,low polyreactivity
19,QVQLVESGGGLVQAGGSLRLSCAASGSIFNYYDMGWYRQAPGKERELVAAIDLTGGTTYYADSVKGRFTISRDNAKNTVYLQMNSLKPEDTAVYYCAAQYIRSSWWGYDYWGQGTQVSVSS,low polyreactivity
20,QVQLVESGGGLVQAGGSLRLSCAASGSIFPANAMGWYRQAPGKERELVAGISERGSSTYYADSVKGRFTISRDNAKNTDYLQMNSLKPEDTAVYYCAADDVGRYWSYTHNWARGDYWGQGTQVTVSS,low polyreactivity
21,QVQLVESGGGLVQAGGSLRLSCAASGSIFPAYAMGWYRQAPGKERELVAAITDRGGYTYYADSVKGRFTISRDNAKNTVYLQMNSLKPEDT,low polyreactivity
22,QVQLVESGGGLVQAGGSLRLSCAASGSIFPAYAMGWYRQAPGKERELVAAITFSGGSTYYADSVKGRFTISRDNAKNTVYLQMNSLKPEDTAVYYCATDSYGWRFNRAITSYGGDYWGQGTQVTVSS,low polyreactivity

row,Sequence,polyreactivity (PSR sort gate)
1,QVQLVESGGGLVQAGGSLRLSCAASGSIFPAYAMGWYRQAPGTERELVAAITFSGGRTYYADSVKGRFTISRDNAKNTVYLQMNSLKPEDTAVYDCAAYGAPSGTGAKYGYWGQGTQVTVSS,low polyreactivity
2,QVQLVESGGGLVQAGGSLRLSCAASGSIFPEYVMGWYRQAPGKERELVAAISWSGGSTYYADSVKGRFTISRDNAKNTVYLQMNSLKPEDTAVYYCNRVPSWRIDYDYWGQGTQVTVSS,low polyreactivity
3,QVQLVESGGGLVQAGGSLRLSCAASGSIFPFNAMGWYRQAPGKERELVAAIRWSDGRTYYADSVKGRFTISRDNAKNTVYLQMNSLKPEDTAVYYCAAKSYWGQGTQVTVSS,high polyreactivity
4,QVQLVESGGGLVQAGGSLRLSCAASGSIFPFNAMGWYRQAPGKERELVAAISRRGTGTYYADSVKGRFTISRDNAKNTVYLQMNSLKPEDTAVYYCNAVVRAGHYDYWGQGTQVTVSS,high polyreactivity
5,QVQLVESGGGLVQAGGSLRLSCAASGSIFPFYALGLYSQAPGTDRELVAGISNGDSPNYADSVKGRFTIARDNAKNSVYLQLNSLKPEDTGVYYCATDLPGGRYYGPYDYWGQGTQGTVSS,low polyreactivity
6,QVQLVESGGGLVQAGGSLRLSCAASGSIFPFYAMGWYRKAPGKERELVAAISDRGGSTYYADSVKGRFTISRDNAKNTVYLQMNSLKPDDTAVYYCAKGAEVSQGYTDEYDYWGQGTQVTVSS,low polyreactivity
7,QVQLVESGGGLVQAGGSLRLSCAASGSIFPGFAMGWYRQAPGKERELVAAISTSGGNTYYADSVKGRFTISRDNAKNTVYLQMNSLKPEDTAVYYCAVRHRLYTAGYDYWGQGTQVTVSS,low polyreactivity
8,QVQLVESGGGLVQAGGSLRLSCAASGSIFPGYAMGWYRPAPGKDRELVATIPWSGGSTYYADSVKGRFTISRDNENNTVYLQMNSLKPEDTAVYYCYADSYWYYQWYYYGLYDYWGAGTQVTVSS,low polyreactivity
9,QVQLVESGGGLVQAGGSLRLSCAASGSIFPGYAMGWYRQAPGKERELVATITWSGGSTYYADSVKGRFTISRDNAKNTVYLQMNSLKPADTAVYYCNADSNWYYQWNYYGLYDYWGQGTQVTVSS,low polyreactivity
10,QVQLVESGGGLVQAGGSLRLSCAASGSIFPGYAMGWYRQAPGNERELVAAISSGGNTHYADSVKGRFTISRDNAKNTVYLQMNSLKPEDTAVYYCAASYDYTYYWGQGTQVTVSS,low polyreactivity
11,QVQLVESGGGLVQAGGSLRLSCAASGSIFPGYARGWYRQAPGKERELVATITWSGGSTYYADSVKGRFTISRDNAKNTVYLQMNILIPEDTAVYYCNADSNWYYQWNYYGLYDYWGQGNQVTVSS,low polyreactivity
12,QVQLVESGGGLVQAGGSLRLSCAASGSIFPHNAMGWYRQAPGKERELVAAISTSGGRTYYADSVKGRFTISRDNAKNTVYLQMNSLKPVDTAVYYCNARSVRSRYDYWGQGTQVTVSS,high polyreactivity
13,QVQLVESGGGLVQAGGSLRLSCAASGSIFPHYAMGWYRQAPGKERELVASITYDGDSTYYADSVKGRFTISRDNAKNTVYLQMNSLKPEDTAVYYCAADYYYVYSSFGHYYWGQGTQVTVSS,low polyreactivity
14,QVQLVESGGGLVQAGGSLRLSCAASGSIFPIYAMGWYRQAPGKERELVAAIDSSGGSTYYADSVKGRFTISRDNAKNTVYLQMNSLKPEDTAVYYCAADFGSKSTPYDYWGQGTQVTVSS,low polyreactivity
15,QVQLVESGGGLVQAGGSLRLSCAASGSIFPLYAMGWSRQAPGKERELVAAITWRGGSTYYADSVKGRFTITRDNAKNTVYLQMNSLKPEDTAVYYCNRDLVPRFDYWGQGTQVTVSS,low polyreactivity
16,QVQLVESGGGLVQAGGSLRLSCAASGSIFPLYVMGWYRQAPGKERELVAAISSAADTYYADSVKGRFTISRDNAKNTVYLQMNSLKPEDTAVYYCAAAVLYWVGYGYWGQGTQVTVSS,low polyreactivity
17,QVQLVESGGGLVQAGGSLRLSCAASGSIFPPYALGWYRQAPGKERELVAAIDWGGSSTYYADSVKGRFTISRDNAKYTVYLQMNSLKPEATAVYYCAAEVVHGYYLYEYWGQGTQVTVSS,high polyreactivity
18,QVQLVESGGGLVQAGGSLRLSCAASGSIFPPYAMGWYRQAPGKERELVATITIRGGSTYYADSVKGRFTISRDNAKNTVYLEMNSLKPDDTAVYYCAADYTKYYRSYYYWGQGTQVTVSS,high polyreactivity
19,QVQLVESGGGLVQAGGSLRLSCAASGSIFPPYTMGWFRQAPGKELELVATISSTGITNYADSVKGRFTNSRDNAKNTVYLQMNSLKQEDTAVYYCAAGLWYSFDYWGQGTQVTVSS,high polyreactivity
20,QVQLVESGGGLVQAGGSLRLSCAASGSIFPPYVMGWYRQAPGKERELVASITTSGGSTYYADSVKGRFTISRDNAKNTVYLQMNSLKPEDTAVYYCAARWYYGGKSAGPGGGYWGQGTQVTVSS,low polyreactivity
21,QVQLVESGGGLVQAGGSLRLSCAASGSIFPRDAMGRYRQAPGKERELVAAITGSGSSTYYADSVKGRFTISRDNAKNTVYLQMNSLKPEDTAVYYCNTARPTAAYDYWGQGTKVTVSS,low polyreactivity
